In publication PMC5222566, “The Ciliopathy-Associated Cep104 Protein Interacts with Tubulin and Nek1 Kinase” (Structure(London, England:1993), 2017):

Target: tubulin (Cytoskeleton) (UniProt P02550 1-451)
Test: SEC-MALS; TOG protein mixed with reconstituted tubulin, each ~42 uM, 1:1; 25 mM Tris-HCl pH 7.5, 100 mM NaCl, 1 mM MgCl2, 1 mM EGTA
Conditions: both partners purified

stoichiometry N: 1
B1: human Cep104 TOG domain (Cep104^367-685), wild type (domain or fragment, UniProt O60308 367-685, looked up)
chain: DPHPKINAESLPYDERPLPAIRKHYGEAVVEPEMSNADISDARRGGMLGEPEPLTEKALREASSAIDVLGETLVAEAYCKTWSYREDALLALSKKLMEMPVGTPKEDLKNTLRASVFLVRRAIKDIVTSVFQASLKLLKMIITQYIPKHKLSKLETAHCVERTIPVLLTRTGDSSARLRVTAANFIQEMALFKEVKSLQIIPSYLVQPLKANSSVHLAMSQMGLLARLLKDLGTGSSGFTIDNVMKFSVSALEHRVYEVRETAVRIILDMYRQHQASILEYLPPDDSNTRRNILYKTIFEGFAKIDGRATDAEMRARRK
notes: The crystallised TOG construct (392-676, PDB 5LPH) has other limits; also called WT TOG; source: E. coli Rosetta, purified (Ni-NTA, PreScission cleavage, HiTrap SP); not shown: His6, N-terminal, cleaved
